Measurements published in US20240279325A1 (Chugai, published 2024).
Residue numbers refer to the chain shown, from its start.

Experiments:
[1] = target: T1, human FcγRIIb extracellular domain with C-terminal His tag (human, UniProt P31994 43-217); experiment: SPR (Biacore), captured antibody, FcγR analyte
T1 sequence: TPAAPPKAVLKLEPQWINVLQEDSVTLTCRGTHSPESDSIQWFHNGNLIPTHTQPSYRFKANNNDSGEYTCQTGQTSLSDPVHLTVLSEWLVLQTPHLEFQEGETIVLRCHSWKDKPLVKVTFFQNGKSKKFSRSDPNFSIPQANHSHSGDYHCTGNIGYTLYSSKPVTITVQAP

[2] = target: human FcγRIa extracellular domain with C-terminal His tag (human, UniProt P12314 16-292); experiment: SPR (Biacore), captured antibody, FcγR analyte
Chain of human FcγRIa extracellular domain with C-terminal His tag (P12314 16-292): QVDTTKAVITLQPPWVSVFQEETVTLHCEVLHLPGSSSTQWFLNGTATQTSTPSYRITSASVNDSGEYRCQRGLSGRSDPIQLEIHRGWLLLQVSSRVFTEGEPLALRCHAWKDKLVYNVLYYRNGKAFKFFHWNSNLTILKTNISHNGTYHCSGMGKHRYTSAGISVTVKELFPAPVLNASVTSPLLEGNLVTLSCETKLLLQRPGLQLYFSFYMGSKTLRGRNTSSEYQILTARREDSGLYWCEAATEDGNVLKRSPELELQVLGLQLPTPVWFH

[3] = target: T2, human FcγRIIIa type V (allotype V158) extracellular domain with C-terminal His tag (human, UniProt P08637 17-208); experiment: SPR (Biacore), captured antibody, FcγR analyte
T2 construct: also called FcγRIIIaV; FcγRIIIa V type
T2 sequence (P08637 other isoform, or with tags, fused parts or gaps): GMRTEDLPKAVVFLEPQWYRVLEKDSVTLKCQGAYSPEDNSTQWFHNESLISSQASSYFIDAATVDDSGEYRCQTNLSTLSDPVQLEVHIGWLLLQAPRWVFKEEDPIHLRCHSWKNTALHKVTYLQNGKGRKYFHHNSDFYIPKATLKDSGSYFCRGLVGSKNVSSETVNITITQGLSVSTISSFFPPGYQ

[4] = target: T3, human FcγRIIa type R (allotype R131) extracellular domain with C-terminal His tag (human, UniProt P12318 34-217); experiment: SPR (Biacore), captured antibody, FcγR analyte
T3 construct: also called FcγRIIaR
T3 chain: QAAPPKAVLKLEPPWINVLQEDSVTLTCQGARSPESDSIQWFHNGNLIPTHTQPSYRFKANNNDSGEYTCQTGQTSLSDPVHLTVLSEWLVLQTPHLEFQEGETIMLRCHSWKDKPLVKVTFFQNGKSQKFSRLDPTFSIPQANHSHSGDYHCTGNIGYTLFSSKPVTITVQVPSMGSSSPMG

[5] = target: T4, human FcγRIIa type H (allotype H131) extracellular domain with C-terminal His tag (human, UniProt P12318 34-217); experiment: SPR (Biacore), captured antibody, FcγR analyte
T4 construct: also called FcγRIIaH
T4 sequence: T3 chain with R133H

[6] = target: T1, human FcγRIIb extracellular domain with …; experiment: ratio of SPR KDs (FcγRIIaR over FcγRIIb)
[7] = target: T1, human FcγRIIb extracellular domain with …; experiment: ratio of SPR KDs, reference IL6R-B3/IL6R-L
[8] = target: T3, human FcγRIIa type R (allotype R131) …; experiment: ratio of SPR KDs, reference IL6R-B3/IL6R-L
[9] = target: T5, FcγRIIaR extracellular region (human, UniProt P12318 34-217); experiment: SPR (Biacore), ratio of KD values
T5 construct: extracellular domain; also called FcγRIIa type R; FcγRIIa allotype R131
T5 sequence (looked up): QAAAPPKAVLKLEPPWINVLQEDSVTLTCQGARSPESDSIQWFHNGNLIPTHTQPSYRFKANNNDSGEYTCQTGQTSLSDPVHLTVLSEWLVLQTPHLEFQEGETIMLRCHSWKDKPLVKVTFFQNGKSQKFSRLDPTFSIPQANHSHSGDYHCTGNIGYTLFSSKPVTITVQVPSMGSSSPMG

[10] = target: T6, FcγRIIb extracellular region (human, UniProt P31994 43-217); experiment: SPR (Biacore), ratio of KD values
T6 construct: extracellular domain; for crystals expressed with kifunensine and trimmed with Endo F1; also called human FcγRIIb
T6 sequence (looked up): T1 sequence

mouse FcγRI = target: T7, mouse FcγRI (mouse, UniProt P26151 25-297); experiment: SPR (Biacore)
T7 construct: also called mFcγRI
T7 sequence (looked up): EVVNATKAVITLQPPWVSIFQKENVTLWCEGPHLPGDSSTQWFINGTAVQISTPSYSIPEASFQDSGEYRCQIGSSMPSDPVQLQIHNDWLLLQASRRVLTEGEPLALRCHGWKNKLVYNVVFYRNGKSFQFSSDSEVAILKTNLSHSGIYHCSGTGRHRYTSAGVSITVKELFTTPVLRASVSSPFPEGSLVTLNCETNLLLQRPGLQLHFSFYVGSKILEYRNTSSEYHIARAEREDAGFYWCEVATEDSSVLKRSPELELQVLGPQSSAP

mouse FcγRIV = target: T8, mouse FcγRIV (mouse, UniProt A0A0B4J1G0 21-203); experiment: SPR (Biacore)
T8 construct: also called mFcγRIV; not shown: purification tag of the soluble receptor (probably a His tag)
T8 sequence: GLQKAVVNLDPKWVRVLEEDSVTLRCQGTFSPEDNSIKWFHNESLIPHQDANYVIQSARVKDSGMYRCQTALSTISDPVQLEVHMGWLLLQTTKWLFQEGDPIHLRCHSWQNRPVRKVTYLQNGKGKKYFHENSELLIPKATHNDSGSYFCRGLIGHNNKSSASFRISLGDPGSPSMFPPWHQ

[11] = target: T9, FcγRIIa type R (allotype R131) extracellular domain with C-terminal His tag (human, UniProt P12318 34-217); experiment: SPR (Biacore), antibody captured, FcγR as analyte
T9 construct: extracellular domain; also called FcγRIIaR; FcγRIIa R type
T9 sequence (looked up): T5 sequence (looked up)

[12] = target: T10, FcγRIIIa type V (allotype V158) extracellular domain with C-terminal His tag (human, UniProt P08637 17-208); experiment: SPR (Biacore), antibody captured, FcγR as analyte
T10 construct: extracellular domain; also called FcγRIIIaV; FcγRIIIa V type
T10 sequence (P08637 17-208 F176V): as the sequence (P08637 other isoform, or with tags, fused parts or gaps) above, with S179A counted along it

[13] = target: T11, FcγRIIb extracellular domain with C-terminal His tag (human, UniProt P31994 43-217); experiment: SPR (Biacore), antibody captured, FcγR as analyte
T11 construct: extracellular domain
T11 sequence (looked up): T1 sequence

[14] = target: T12, FcγRIa extracellular domain with C-terminal His tag (human, UniProt P12314 16-292); experiment: SPR (Biacore), antibody captured, FcγR as analyte
T12 construct: extracellular domain
T12 sequence (P12314 16-292): as the sequence (P12314 16-292) above

human FcRn [15] = target: T13, human FcRn (human, UniProt P55899 24-290; P61769 21-119, limits assumed); experiment: SPR (Biacore), pH 7.0
T13 construct: also called hFcRn
Method: (§1) The binding between the antibody and human FcRn under a neutral condition (pH 7.0) was analyzed with a BIACORE™ system.
T13 sequence (P55899 24-290 limits assumed, chain 1 of 2): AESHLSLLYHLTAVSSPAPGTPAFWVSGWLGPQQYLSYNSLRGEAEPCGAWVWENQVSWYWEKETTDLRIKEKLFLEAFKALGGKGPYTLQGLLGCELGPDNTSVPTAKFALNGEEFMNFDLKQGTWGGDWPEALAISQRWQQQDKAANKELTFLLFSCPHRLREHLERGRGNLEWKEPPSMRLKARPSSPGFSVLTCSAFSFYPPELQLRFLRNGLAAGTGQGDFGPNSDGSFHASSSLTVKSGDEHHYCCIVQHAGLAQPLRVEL
T13 sequence (P61769 21-119 limits assumed, chain 2 of 2): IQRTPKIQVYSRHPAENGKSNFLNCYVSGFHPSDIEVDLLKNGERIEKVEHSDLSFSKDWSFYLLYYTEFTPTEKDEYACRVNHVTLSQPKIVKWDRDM

human FcRn [16] = target: T14, human FcRn (human, UniProt P55899 24-290; P61769 21-119, limits assumed); experiment: SPR Biacore, pH 7.0
T14 construct: also called human neonatal Fc receptor
Method: as §1
T14 sequence (P55899 24-290 limits assumed, chain 1 of 2): as the sequence (P55899 24-290 limits assumed, chain 1 of 2) above
T14 sequence (P61769 21-119 limits assumed, chain 2 of 2): as the sequence (P61769 21-119 limits assumed, chain 2 of 2) above

B1: IL6R-BP478/IL6R-L (antibody)
heavy: QVQLQESGPGLVKPSETLSLTCAVSGHSISHDHAWSWVRQPPGEGLEWIGFISYSGITNYNPSLQGRVTISRDNSKNTLYLQMNSLRAEDTAVYYCARSLARTTAMDYWGEGTLVTVSSASTKGPSVFPLAPCSRSTSESTAALGCLVKDYFPEPVTVSWNSGALTSGVHTFPAVLQSSGLYSLSSVVTVPSSSLGTKTYTCNVDHKPSNTKVDKRVESKYGPPCPPCPAPDLLGDDSVFLFPPKPKDTLMISRTPEVTCVVVDVSDEDGEVKFNWYVDGVEVHNAKTKPREEQDNSTYRVVSVLTVLHQDWLNGKEYKCKVSNKALPRPIEKTISKAKGQPREPQVYTLPPSRDELTKNQVSLTCLVKGFYPSDIAVEWESNGQPENNYKTTPPVLDSDGSFFLYSKLTVDKSRWQQGNVFSCSVMHEALHNHYTQESLSLSP
light: not shown
notes: copies: 2 + 2
Kd [1]: 19 nM
Kd [2]: 7.7 nM
Kd [3]: 35000 nM
Kd [4]: 540 nM
Kd [5]: 6700 nM
KD(IIaR)/KD(IIb) [6]: 28
KD(IIb) of parent polypeptide/KD(IIb) of altered polypeptide [7]: 161
KD(IIaR) of parent polypeptide/KD(IIaR) of altered polypeptide [8]: 2

B2: IL6R-BP478/IL6R-L (antibody)
heavy: B1 heavy
light: not shown
notes: copies: 2 + 2
fold binding relative to IL6R-BP230/IL6R-L [9]: 0.9 times
fold binding relative to IL6R-BP230/IL6R-L [10]: 1.1 times

B3: VH3/L (WT)-mIgG1 (antibody)
heavy: QVQLQESGPGLVKPSETLSLTCAVSGHSISHDHAWSWVRQPPGEGLEWIGFISYSGITNYNPSLQGRVTISRDNSKNTLYLQMNSLRAEDTAVYYCARSLARTTAMDYWGEGTLVTVSSAKTTPPSVYPLAPGSAAQTNSMVTLGCLVKGYFPEPVTVTWNSGSLSSGVHTFPAVLQSDLYTLSSSVTVPSSTWPSETVTCNVAHPASSTKVDKKIVPRDCGCKPCICTVPEVSSVFIFPPKPKDVLTITLTPKVTCVVVDISKDDPEVQFSWFVDDVEVHTAQTQPREEQFNSTFRSVSELPIMHQDWLNGKEFKCRVNSAAFPAPIEKTISKTKGRPKAPQVYTIPPPKEQMAKDKVSLTCMITDFFPEDITVEWQWNGQPAENYKNTQPIMDTDGSYFVYSKLNVQKSNWEAGNTFTCSVLHEGLHNHHTEKSLSHSPGK
light: not shown
notes: copies: 2 + 2
binding result (mouse FcγRI): no binding
binding result (mouse FcγRIV): no binding

B4: IL6R-BP253/IL6R-L (antibody, human IgG1, kappa, name in EU numbering)
heavy: QVQLQESGPGLVKPSETLSLTCAVSGHSISHDHAWSWVRQPPGEGLEWIGFISYSGITNYNPSLQGRVTISRDNSKNTLYLQMNSLRAEDTAVYYCARSLARTTAMDYWGEGTLVTVSSASTKGPSVFPLAPSSKSTSGGTAALGCLVKDYFPEPVTVSWNSGALTSGVHTFPAVLQSSGLYSLSSVVTVPSSSLGTQTYICNVNHKPSNTKVDKKVEPKSCDKTHTCPPCPAPELLGGPSVFLFPPKPKDTLMISRTPEVTCVVVDVEHEDPEVKFNWYVDGVEVHNAKTKPREEQYNSTYRVVSVLTVLHQDWLNGKEYKCKVSNKAFPAPIEKTISKAKGQPREPQVYTLPPSRDELTKNQVSLTCLVKGFYPSDIAVEWESNGQPENNYKTTPPVLDSDGSFFLYSKLTVDKSRWQQGNVFSCSVMHEALHNHYTQESLSLSP
light: not shown
notes: comparison control with existing alterations; copies: 2 + 2
Kd [11]: 2.1 nM
Kd [12]: 3600 nM
Kd [13]: 11 nM
Kd [14]: 0.0067 nM

B5: F554 (antibody, human IgG1, kappa)
heavy: B4 heavy with S241K, M254Y, S256T, E269S, V310P, F330L, N436Y, E441K
light: not shown
notes: copies: 2 + 2
Kd (human FcRn [15]): 28 nM

B6: F414 (antibody, human IgG1, kappa)
heavy: B4 heavy with P259V, E269S, T309S, F330L, M430L, N436Y, E441K
light: not shown
notes: copies: 2 + 2
Kd (human FcRn [16]): 110 nM
